Results: article PMC4027207, “Molecular dissection of the domain architecture and catalytic activities of human PrimPol” (Nucleic Acids Research, 2014)

How the values were obtained:
[1] = target: T1, human PrimPol (wild-type, full-length) (Homo sapiens, UniProt Q96LW4); test: gel-based single nucleotide primer extension; type: biochemical; conditions: 200 uM dNTP
T1 construct: full length (560 residues), E. coli BL21(pLysS), Ni-NTA, heparin and gel filtration
T1 sequence (Q96LW4 1-560): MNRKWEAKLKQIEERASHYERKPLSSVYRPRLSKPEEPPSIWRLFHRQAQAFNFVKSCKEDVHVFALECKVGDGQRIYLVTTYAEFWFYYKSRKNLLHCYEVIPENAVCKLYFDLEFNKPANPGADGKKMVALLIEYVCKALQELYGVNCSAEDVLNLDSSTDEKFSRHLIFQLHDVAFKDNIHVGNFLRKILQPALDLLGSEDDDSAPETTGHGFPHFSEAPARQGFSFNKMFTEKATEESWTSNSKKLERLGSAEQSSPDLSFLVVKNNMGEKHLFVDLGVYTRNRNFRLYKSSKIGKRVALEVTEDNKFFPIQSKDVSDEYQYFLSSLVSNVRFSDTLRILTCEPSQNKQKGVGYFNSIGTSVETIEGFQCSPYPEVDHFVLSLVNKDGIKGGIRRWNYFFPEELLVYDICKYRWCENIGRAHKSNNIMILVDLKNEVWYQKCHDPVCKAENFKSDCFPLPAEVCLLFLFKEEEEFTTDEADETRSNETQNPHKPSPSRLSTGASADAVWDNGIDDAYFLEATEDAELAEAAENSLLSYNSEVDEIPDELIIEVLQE

PrimPol1–354 = target: T2, PrimPol1–354 (Homo sapiens, UniProt Q96LW4); test: gel-based single nucleotide primer extension; type: biochemical; conditions: opposite templating cytosines; 200 uM dNTP, 10 mM MgCl2, pH 7.0
T2 construct: gene PRIMPOL; AEP polymerase domain, residues 1-354, lacks zinc finger; E. coli, Ni-NTA
T2 sequence (Q96LW4 1-354): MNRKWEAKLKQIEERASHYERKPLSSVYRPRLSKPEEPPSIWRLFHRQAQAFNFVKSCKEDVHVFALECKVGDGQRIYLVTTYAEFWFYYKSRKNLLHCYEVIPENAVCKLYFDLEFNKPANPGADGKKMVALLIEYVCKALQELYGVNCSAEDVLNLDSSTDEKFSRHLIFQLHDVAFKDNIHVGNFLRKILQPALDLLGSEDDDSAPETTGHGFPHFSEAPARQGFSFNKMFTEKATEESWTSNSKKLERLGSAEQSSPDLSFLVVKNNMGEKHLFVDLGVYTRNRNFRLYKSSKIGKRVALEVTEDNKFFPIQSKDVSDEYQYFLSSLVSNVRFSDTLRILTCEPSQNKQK

[2] = target: T3, PrimPol372-560 (zinc finger domain) (Homo sapiens, UniProt Q96LW4 372-560); test: EMSA; 10 mM Mg2+; 40 nM DNA; protein 0.05-20 uM; 10 mM Bis-Tris-Propane-HCl pH 7.0, 10 mM MgCl2, 1 mM DTT, 40 nM DNA, 25°C, 60 min; 5% polyacrylamide gel in 0.5x TBE; conditions: protein: recombinant; tags: His (Ni-NTA purified); label: 5'-Hex
T3 sequence: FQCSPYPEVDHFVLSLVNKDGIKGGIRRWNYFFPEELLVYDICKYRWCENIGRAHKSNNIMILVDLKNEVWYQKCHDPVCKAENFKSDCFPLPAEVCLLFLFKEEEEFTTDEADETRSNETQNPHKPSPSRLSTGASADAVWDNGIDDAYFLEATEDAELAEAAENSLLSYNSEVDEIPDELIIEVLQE

[3] = target: T4, PrimPol1-354 (AEP polymerase domain) (Homo sapiens, UniProt Q96LW4 1-354); test: EMSA; 10 mM Mg2+; 40 nM DNA; shift evident at ~0.5 uM protein, complete at 5 uM; 10 mM Bis-Tris-Propane-HCl pH 7.0, 10 mM MgCl2, 1 mM DTT, 40 nM DNA, 25°C, 60 min; 5% polyacrylamide gel in 0.5x TBE; conditions: protein: recombinant, tags: His (Ni-NTA purified)
T4 sequence: T2 sequence (Q96LW4 1-354)

[4] = target: T3, PrimPol372-560 (zinc finger domain); test: EMSA; 10 mM Mg2+; 40 nM DNA; no shift, protein 0.05-20 uM; 10 mM Bis-Tris-Propane-HCl pH 7.0, 10 mM MgCl2, 1 mM DTT, 40 nM DNA, 25°C, 60 min; 5% polyacrylamide gel in 0.5x TBE; conditions: protein: recombinant; tags: His (Ni-NTA purified); label: 5'-Hex on strand 1; blunt

Nc1ncnc2c1ncn2[C@H]1C[C@H](O)[C@@H](COP(=O)(O)OP(=O)(O)OP(=O)(O)O)O1 [dATP]
gel-based single nucleotide primer extension ([1]; template-independent extension, 10 mM MgCl2, 1 mM MnCl2, pH 7.0, 37 °C): promiscuous DNA synthesis was most efficient when enzyme was utilising dATP or dTTP

Nc1nc2c(ncn2[C@H]2C[C@H](O)[C@@H](COP(=O)(O)OP(=O)(O)OP(=O)(O)O)O2)c(=O)[nH]1 [dGTP]
gel-based single nucleotide primer extension (PrimPol1–354): All four of these PrimPol constructs inserted two guanine nucleotides opposite two cytosines | gel-based single nucleotide primer extension ([1]; opposite templating cytosines, 10 mM MgCl2, pH 7.0): all incorporated two correct incoming guanine nucleotides opposite the templating cytosines

TGTCGTCTGTTCGGTCGTTCGGTCTTCAAGGCTGTTGTGCGCCCTGCGCG (ssDNA) [HP-50 ssDNA (sequence 7)]
binding result [2]: binds | binding result ([3]; label: 5'-Hex): binds

B1: HP-50/ND-50 dsDNA (sequence 6 annealed to 7) (dsDNA)
DNA 1: TGTCGTCTGTTCGGTCGTTCGGTCTTCAAGGCTGTTGTGCGCCCTGCGCG
DNA 2: CGCGCAGGGCGCACAACAGCCTTGAAGACCGAACGACCGAACAGACGACA
binding result [4]: no binding | binding result ([3]; label: 5'-Hex on strand 1, blunt): binds
